Molecular target: BpGH94MLG, glycoside (cellodextrin) phosphorylase of CAZy family GH94 from Blautia producta ATCC 27340 (Blautia producta ATCC 27340)
Test: crystal structure; crystal structure of recombinant BpGH94MLG at 2.3 Å; two copies per asymmetric unit; crystallisation methods not shown (supplement)

- stoichiometry N: 2
Substance: BpGH94MLG, glycoside (cellodextrin) phosphorylase of CAZy family GH94 from Blautia producta ATCC 27340 (enzyme)
